From PMC8844856, “Structural basis of cyclic oligoadenylate binding to the transcription factor Csa3 outlines cross talk between type III and type I CRISPR systems” (The Journal of Biological Chemistry, 2022)
Substitutions are numbered along the chain they refer to.

Key:
Conditions in all cases: protein: recombinant; tags: N-terminal His6; chain copies: 2; cyclic; no ends
[1] = target: T1, Csa3Sso F10A (Saccharolobus solfataricus P2, UniProt Q97Y88 1-237, F10A); assay: MST; nonspecific signal at high cA4 only; MST buffer not given in the material; Cy5 EMSA: 50 nM probe, 0.5-25 uM protein, 5% acrylamide TBE, 4 C; agarose EMSA: 2% TBE, room temperature; crystals: 20 mM
T1 sequence: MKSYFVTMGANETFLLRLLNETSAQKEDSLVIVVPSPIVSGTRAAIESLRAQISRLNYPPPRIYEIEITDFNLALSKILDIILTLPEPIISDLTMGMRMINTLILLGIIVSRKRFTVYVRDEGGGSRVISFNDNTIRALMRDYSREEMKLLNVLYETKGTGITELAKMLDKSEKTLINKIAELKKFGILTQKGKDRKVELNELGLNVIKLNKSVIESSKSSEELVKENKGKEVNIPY

[2] = target: T2, Csa3Sso R98A (Saccharolobus solfataricus P2, UniProt Q97Y88 1-237, R98A); assay: as above
T2 sequence: T1 sequence with A10F, R98A

[3] = target: T3, Csa3Sso F14A (Saccharolobus solfataricus P2, UniProt Q97Y88 1-237, F14A); assay: as above
T3 sequence: T1 sequence with A10F, F14A

[4] = target: T4, Csa3Sso G96A (Saccharolobus solfataricus P2, UniProt Q97Y88 1-237, G96A); assay: as above
T4 sequence: T1 sequence with A10F, G96A

[5] = target: T5, Csa3Sso E122Q (Saccharolobus solfataricus P2, UniProt Q97Y88 1-237, E122Q); assay: MST; MST buffer not given in the material; Cy5 EMSA: 50 nM probe, 0.5-25 uM protein, 5% acrylamide TBE, 4 C; agarose EMSA: 2% TBE, room temperature; crystals: 20 mM
T5 sequence: T1 sequence with A10F, E122Q

[6] = target: T6, Csa3Sso E122A (Saccharolobus solfataricus P2, UniProt Q97Y88 1-237, E122A); assay: as above
T6 sequence: T1 sequence with A10F, E122A

## AAAA (ssRNA, cyclic, 3'-5' linked tetra-adenylate (CHEBI:142457)) [cA4]
[1]
  binding result: no binding
[2]
  binding result: no binding
[3]
  binding result: no binding
[4]
  binding result: no binding
[5]
  Kd: 44.5 nM
[6]
  Kd: 38.3 nM
